{
  "source": "paper PMC11464976",
  "about": "“Insights into structure and activity of a UDP-GlcNAc 2-epimerase involved in secondary cell wall polymer biosynthesis in Paenibacillus alvei” (Frontiers in Molecular Biosciences, 2024)",
  "molecules": {"B1": {"name": "PaMnaA (MnaA.His6) (Paenibacillus alvei) (protein)", "chain": "MSKVKVMTVFGVRPEAIKMAPLILELQKHPEHIESIVCVTAQHRQMLDQVLDVFNIKPDYDLDIMQARQTLNDISVRVLQGLEPVLQEAKPDIVLVHGDTLTTFLASYAAFMQQIKVGHVEAGLRTWNKLSPFPEEMNRQLTGVLADLHFAPTDWSASNLRKENKQDASIFVTGNTVTDVFQYTVRSDYKHEVLDWAQGKRLVLMTAHRRESQGEPHRNIFRAVRRIADEFEDIAIVYPVHPSPAVREPAHEMLGDHPRIKLIDPLDVVDLHNFYPHTHLILTDSGGLQEEAPSFGIPVLVLRETTERPEGIDAGTLELVGTDEEKVYARAKALLSDETTYARMSKAANPYGDGKASQRIVSAILHSFGVLEERPEPFHTKFTN", "notes": "amino acids 1-384, Leu-Glu linker and C-terminal His6 tag, pET22b(+), E. coli BL21(DE3), Ni-NTA"}},
  "test_in_all_cases": "purified protein",
  "assay_type_in_all_cases": "biochemical, Paenibacillus alvei",
  "key": {"[1]": {"tested_on": "T1, CC(=O)N[C@H]1[C@@H](OP(=O)(O)OP(=O)(O)OC[C@H]2O[C@@H](n3ccc(=O)[nH]c3=O)[C@H](O)[C@@H]2O)O[C@H](CO)[C@@H](O)[C@@H]1O", "T1 construct": "amino acids 1-384, Leu-Glu linker and C-terminal His6 tag, pET22b(+), E. coli BL21(DE3), Ni-NTA", "conditions": "forward reaction, 10 mM sodium phosphate pH 8.0, 50 mM MgCl2, 30 °C, apparent constant"}, "[2]": {"substrate": "CC(=O)N[C@H]1[C@@H](OP(=O)(O)OP(=O)(O)OC[C@H]2O[C@@H](n3ccc(=O)[nH]c3=O)[C@H](O)[C@@H]2O)O[C@H](CO)[C@@H](O)[C@@H]1O", "conditions": "forward reaction, 10 mM sodium phosphate pH 8.0, 50 mM MgCl2, 30 °C, 5 min, apparent constant"}, "[3]": {"substrate": "CC(=O)N[C@@H]1[C@@H](OP(=O)(O)OP(=O)(O)OC[C@H]2O[C@@H](n3ccc(=O)[nH]c3=O)[C@H](O)[C@@H]2O)O[C@H](CO)[C@@H](O)[C@@H]1O", "conditions": "reverse reaction, 10 mM sodium phosphate pH 8.0, 50 mM MgCl2, 30 °C, 45 min, apparent constant"}, "[4]": {"conditions": "kcat 0.05 in text fits printed kcat/Km 0.03, table prints 0.53"}},
  "data": [
    {"molecule": "PaMnaA (MnaA.His6) (Paenibacillus alvei; H241A)", "values": [
      {"measurement": "Km", "setting": "[1]", "result": 3.27, "unit": "mM"},
      {"measurement": "kcat", "setting": "[1]", "result": 0.53, "unit": "s⁻¹"},
      {"measurement": "kcat/Km", "setting": "[1]", "result": 160, "unit": "M⁻¹ s⁻¹"}
    ]},
    {"molecule": "PaMnaA (MnaA.His6) (Paenibacillus alvei; Q42A)", "values": [
      {"measurement": "Km", "setting": "[1]; [4]", "result": 1.61, "unit": "mM"},
      {"measurement": "kcat", "setting": "[1]; [4]", "result": 0.05, "unit": "s⁻¹"},
      {"measurement": "kcat/Km", "setting": "[1]; [4]", "result": 30, "unit": "M⁻¹ s⁻¹"}
    ]},
    {"molecule": "PaMnaA (MnaA.His6) (Paenibacillus alvei; Q69A)", "values": [
      {"measurement": "Km", "setting": "[1]", "result": 8.92, "unit": "mM"},
      {"measurement": "kcat", "setting": "[1]", "result": 37.9, "unit": "s⁻¹"},
      {"measurement": "kcat/Km", "setting": "[1]", "result": 4250, "unit": "M⁻¹ s⁻¹"}
    ]},
    {"molecule": "B1", "values": [
      {"measurement": "Km", "setting": "[2]", "result": 3.91, "unit": "mM"},
      {"measurement": "kcat", "setting": "[2]", "result": 33.4, "unit": "s⁻¹"},
      {"measurement": "kcat/Km", "setting": "[2]", "result": 8560, "unit": "M⁻¹ s⁻¹"},
      {"measurement": "Km", "setting": "[3]", "result": 2.41, "unit": "mM"},
      {"measurement": "kcat", "setting": "[3]", "result": 6.02, "unit": "s⁻¹"}
    ]}
  ]
}
